Results reported in article PMC8110956, “An infection-induced RhoB-Beclin 1-Hsp90 complex enhances clearance of uropathogenic Escherichia coli” (Nature Communications, 2021).

Biological target: T1, GST-fused Beclin 1 (human, UniProt Q14457 1-450)
T1 construct: Beclin 1, in pGEX4T-3; also called GST-Beclin 1; source: E. coli BL21 (DE3), purified (Glutathione Sepharose 4B)
Test: pull-down; about 1 μg of each purified GST-fused protein combined in 0.8% BSA in PBS at 4 °C overnight; precipitated with anti-RhoB or anti-Beclin 1 antibody (IgG as control) plus protein G Sepharose; western blot
Conditions: both partners purified

T1 sequence (Q14457 whole entry, the tested form may be a part): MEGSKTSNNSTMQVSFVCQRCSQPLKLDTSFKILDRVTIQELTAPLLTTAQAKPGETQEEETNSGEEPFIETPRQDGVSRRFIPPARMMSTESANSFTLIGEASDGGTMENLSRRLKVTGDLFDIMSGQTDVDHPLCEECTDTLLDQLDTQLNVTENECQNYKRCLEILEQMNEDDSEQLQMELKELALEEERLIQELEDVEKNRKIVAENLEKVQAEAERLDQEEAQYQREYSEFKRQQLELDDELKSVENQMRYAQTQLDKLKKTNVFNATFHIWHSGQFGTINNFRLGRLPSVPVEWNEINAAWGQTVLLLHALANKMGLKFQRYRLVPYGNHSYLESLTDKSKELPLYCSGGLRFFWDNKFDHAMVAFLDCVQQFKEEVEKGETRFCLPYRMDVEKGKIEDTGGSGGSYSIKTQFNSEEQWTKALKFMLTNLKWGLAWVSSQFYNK

B1: GST-RhoB (118–196) (domain or fragment, human, UniProt P62745 118-196, looked up)
chain: KKDLRSDEHVRTELARMKQEPVRTDDGRAMAVRIQAYDYLECSAKTKEGVREVFETATRAALQKRYGSQNGCINCCKVL
notes: source: E. coli BL21 (DE3), purified (Glutathione Sepharose 4B)
B1: binds.
